# Patent publication US20130123350, “NUCLEIC ACID MOLECULE CAPABLE OF BINDING TO c-MET AND USE THEREOF” (KANAGAWA PREFECTURAL HOSPITAL ORGANIZATION, published 2013)
# B1: g29 2'-F (ssRNA)
# RNA: GGGACGCUCACGUACGCUAAACGAGCCGUGAUUGGGUUGGCAACCCUGCUUAUGUGAGGAUCAGUGCCUGGACGUGCAGU
# modifications: 2'-F on all C and U
# B2: g4 (ssRNA)
# RNA: GGGACGCUCACGUACGCUAAUACCGUGAUUCGGGGUGGUAUCCGGUGGACAUCCAGGUCGUCAGUGCCUGGACGUGCAGU
# B3: g8 (ssRNA)
# RNA: GGGACGCUCACGUACGCUAAGGGCACUUAAAACCAGACCGUGAUUUGCGGUUGGUCUCGCUCAGUGCCUGGACGUGCAGU
# B4: g5 (ssRNA)
# RNA: GGGACGCUCACGUACGCUAAGCCCAACGAACAUUUUGAGUUUCCAGGCAGCUCAUAGACAUCAGUGCCUGGACGUGCAGU
# B5: g1-u10del (ssRNA)
# RNA: GGGACGCUAAACACACUGAGAGUUUGACCAGCUAUUAAAUGGGUCGUGACUCAGUGCCUGGACGUGC
# B6: g1 (ssRNA)
# RNA: GGGACGCUCACGUACGCUAAACACACUGAGAGUUUGACCAGCUAUUAAAUGGGUCGUGACUCAGUGCCUGGACGUGCAGU
# B7: g7 (ssRNA)
# RNA: GGGACGCUCACGUACGCUAACUUGAAGUCAAGGGUAGAGUGACCAUGCAGCUCGUAGACAUCAGUGCCUGGACGUGCAGU
# B8: g1-u20del (ssRNA)
# RNA: GGGCACUGAGAGUUUGACCAGCUAUUAAAUGGGUCGUGACUCAGUGCCUGGACGUG
# B9: g1-d10del (ssRNA)
# RNA: GGGACGCUCACGUACGCUAAACACACUGAGAGUUUGACCAGCUAUUAAAUGGGUCGUGACUCAGUGCCUG
# B10: g25 2'-F (ssRNA)
# RNA: GGGACGCUCACGUACGCUAAUAGCAACAGUUCCCAGAGGUGAUCAGGCAGCCUUAAGACAUCAGUGCCUGGACGUGCAGU
# modifications: 2'-F on all C and U
# B11: g38 2'-F (ssRNA)
# RNA: GGGACGCUCACGUACGCUAACCAGGAGCAUUAGACCGGGGAAAGAAGGAGUACCGUCUGGUCAGUGCCUGGACGUGCAGU
# modifications: 2'-F on all C and U
# B12: g2 (ssRNA)
# RNA: GGGACGCUCACGUACGCUAAACCCUGGCGAUCUCCGGCCGGAUACGGGAGAACGAGGUACUCAGUGCCUGGACGUGCAGU
# B13: g3 (ssRNA)
# RNA: GGGACGCUCACGUACGCUAAGGGCGAAACUGUCGUGACACGGUUUGACAUGCCGGCCUUAUCAGUGCCUGGACGUGCAGU
# B14: g1-u5del (ssRNA)
# RNA: GGGCACGUACGCUAAACACACUGAGAGUUUGACCAGCUAUUAAAUGGGUCGUGACUCAGUGCCUGGACGUGCAG
# B15: g1-d5del (ssRNA)
# RNA: GGGACGCUCACGUACGCUAAACACACUGAGAGUUUGACCAGCUAUUAAAUGGGUCGUGACUCAGUGCCUGGACGU
# B16: g9 (ssRNA)
# RNA: GGGACGCUCACGUACGCUAAGAUGUCUCAAUUGGUCGUGAUUGUGCUGACCACACGAACCUCAGUGCCUGGACGUGCAGU
# Legend:
# [1] = target: T1, rec-cMet (Recombinant Human HGF R/c-MET/Fc Chimera) (Homo sapiens, UniProt P08581;P08581 SEQ:1-283,SEQ:1-625); assay: SPR; excellent binding; rec-cMet 60 nM; settings: tags: C-terminal HIEGRMD linker, human IgG Fc (100-330), 6xHis; R&D Systems; chain copies: 2 (inferred, Fc chimera)
# T1 sequence (P08581 25-307, change not shown, chain 1 of 2): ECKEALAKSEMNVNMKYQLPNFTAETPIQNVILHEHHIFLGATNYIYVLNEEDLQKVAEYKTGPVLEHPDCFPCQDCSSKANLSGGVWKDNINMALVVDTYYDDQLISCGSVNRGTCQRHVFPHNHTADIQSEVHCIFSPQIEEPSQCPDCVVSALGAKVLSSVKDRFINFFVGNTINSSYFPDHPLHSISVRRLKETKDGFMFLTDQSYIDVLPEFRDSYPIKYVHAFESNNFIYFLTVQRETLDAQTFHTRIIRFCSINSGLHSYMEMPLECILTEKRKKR
# T1 sequence (P08581 308-932, change not shown, chain 2 of 2): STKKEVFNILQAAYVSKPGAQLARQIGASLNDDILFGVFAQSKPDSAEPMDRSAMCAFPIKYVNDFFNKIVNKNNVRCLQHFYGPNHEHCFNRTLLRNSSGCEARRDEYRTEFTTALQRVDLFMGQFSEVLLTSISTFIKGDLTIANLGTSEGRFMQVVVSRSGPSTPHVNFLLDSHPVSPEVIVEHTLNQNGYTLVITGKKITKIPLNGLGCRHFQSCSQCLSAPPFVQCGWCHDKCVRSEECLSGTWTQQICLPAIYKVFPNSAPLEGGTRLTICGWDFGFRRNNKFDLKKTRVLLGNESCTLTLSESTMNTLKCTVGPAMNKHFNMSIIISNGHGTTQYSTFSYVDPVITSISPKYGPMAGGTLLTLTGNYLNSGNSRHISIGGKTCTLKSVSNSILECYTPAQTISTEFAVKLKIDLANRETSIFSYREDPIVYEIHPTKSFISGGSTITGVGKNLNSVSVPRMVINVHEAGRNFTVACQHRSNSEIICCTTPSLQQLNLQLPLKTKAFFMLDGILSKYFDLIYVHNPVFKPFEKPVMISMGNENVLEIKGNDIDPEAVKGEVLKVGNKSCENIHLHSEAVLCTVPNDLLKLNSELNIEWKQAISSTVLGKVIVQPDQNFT
# From the text: (§1) The binding ability of each of the RNA aptamers to the rec-cMet was examined in the same manner as in Example 5, except that the fluorinated RNA aptamers were used. The concentration of the rec-cMet was set to 60 nmol/L. With the time point at which the introduction of the rec-cMet to the chip was started being 0 seconds, introduction of a buffer was started 60 seconds later. As a comparative example, the same negative control as in Example 6 was used.
# (§2) FIG. 12 is a graph showing the binding ability of each of the RNA aptamers to the rec-cMet. In FIG. 12, the vertical axis indicates the signal intensity (RU) measured with BIACORE (registered trademark) X. The signal intensity shown in the graph is a value measured at the 60th second when the buffer was introduced. […] By fluorination, these RNA aptamers had acquired RNase resistance and they also maintained the bonding force to the c-Met. Thus, it can be seen that these fluorinated RNA aptamers are particularly suitable for use in vivo and in vitro. All the RNA aptamers maintained equivalent signal values subsequent to the 60th second. Thus, it was confirmed that no decrease in binding ability occurred.
# [2] = target: T1, rec-cMet (Recombinant Human HGF …); assay: SPR; rec-cMet 175 nM; settings: tags: C-terminal HIEGRMD linker, human IgG Fc (100-330), 6xHis; R&D Systems; chain copies: 2 (inferred, Fc chimera)
# Protocol: (§3) Using these truncated RNA aptamers, the binding ability thereof to the rec-cMet was examined. The binding ability was analyzed using BIACORE (registered trademark) X (GE Healthcare) in accordance with its instructions for use, with the concentration of the rec-cMet being set to 175 nmol/L. Also, the binding ability of each of the RNA aptamers g1 and g1-trA was examined in the same manner. As a comparative example, the 40N was used, and the binding ability thereof was examined in the same manner.
# [3] = target: T1, rec-cMet (Recombinant Human HGF …); assay: ELONA; 3' polyA20/biotin-polyT; also SPR FIG. 11; settings: tags: C-terminal HIEGRMD linker, human IgG Fc (100-330), 6xHis; R&D Systems; chain copies: 2 (inferred, Fc chimera)
# Protocol: (§4) An anti-IgG antibody (trade name: “Human IgG-Fc Antibody”, Bethyl Laboratories) was adsorbed on a 96-well plate (Iwaki, AGC Techno Glass Co., Ltd., Japan), and then was subjected to blocking using 1% bovine serum albumin. Subsequently, 50 μL of the 1 μg/mL rec-cMet was added to the plate. Further, Tris (20 mmol/L), sodium chloride (100 mmol/L), magnesium acetate (0.1 mmol/L) and Triton (registered trademark)-X100 (0.2%) were added to the plate so that their final concentrations would be as shown in the parentheses. The plate was incubated at room temperature for 3 hours, thus causing the rec-cMet to bind to the plate. After the incubation, the plate was washed three times with a washing solution. The composition of the washing solution was as follows: 20 mmol/L Tris, 100 mmol/L sodium chloride, 0.1 mmol/L magnesium acetate, and 0.2% Triton (registered trademark)-X100. As a control, incubation and washing were carried out in the same manner, except that 50 μL of the washing solution was added instead of 50 μL of the rec-cMet.
# (§5) Next, a 20-mer polyadenine (poly A) was added to the 3′ end of each of the RNA aptamers. Thus, poly-A-added RNA aptamers were prepared. Each of the poly-A-added RNA aptamers was denatured, and thereafter, the denatured poly-A-added RNA aptamer was mixed with a 20-mer biotinylated polythymine with its 5′ end being biotinylated (740 nmol/L), tRNA (100 μg/mL), and an RNase inhibitor (0.16 units/mL). As a result, complementary binding occurred between the poly A in the poly-A-added RNA aptamer and the polythymine (poly T) in the biotinylated polythymine, whereby a biotin-labeled RNA aptamer was produced. The biotin-labeled RNA aptamer was added to the plate, and the plate was incubated at 4° C. for 30 minutes. Subsequently, the plate was washed, and 0.1 μg/mL HRP-streptavidin (Thermo Fisher Scientific Inc., USA) was added thereto. The plate was then washed, after which a 1-Step Ultra TMB substrate (Thermo Fisher Scientific Inc., USA) was added to the plate to cause color development, and the absorbance at 450 nm was measured.
# [4] = target: rec-NGFR (Recombinant Human NGF R/TNFRSF16/Fc Chimera) (Homo sapiens, UniProt P08138 SEQ:1-222); assay: ELONA; signal below 40N; settings: tags: C-terminal DIEGRMD linker, human IgG Fc (100-330), 6xHis; R&D Systems; chain copies: 2 (inferred, Fc chimera)
# Sequence of rec-NGFR (Recombinant Human NGF R/TNFRSF16/Fc Chimera) (P08138 29-250, change not shown): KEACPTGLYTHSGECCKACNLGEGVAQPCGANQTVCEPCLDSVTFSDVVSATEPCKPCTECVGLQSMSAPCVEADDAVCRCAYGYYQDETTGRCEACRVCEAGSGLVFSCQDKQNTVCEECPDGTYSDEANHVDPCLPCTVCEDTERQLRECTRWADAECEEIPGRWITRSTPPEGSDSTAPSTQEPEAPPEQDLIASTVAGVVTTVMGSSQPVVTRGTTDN
# Protocol: as §5
# The binding ability of each of the RNA aptamers to the rec-NGFR was examined in the same manner as in Example 1, except that the rec-NGFR was bound to the plate. Also, as a comparative example, the 40N was used, and the binding ability thereof was examined in the same manner.
# [5] = target: T1, rec-cMet (Recombinant Human HGF …); assay: SPR; rec-cMet 175 nM; also ELISA signal above g1 (FIG. 7); settings: tags: C-terminal HIEGRMD linker, human IgG Fc (100-330), 6xHis; R&D Systems; chain copies: 2 (inferred, Fc chimera)
# Protocol: as §3
# [6] = target: T1, rec-cMet (Recombinant Human HGF …); assay: ELONA; high binding; Table 2 misnumbers as SEQ 47; also SPR FIG. 11; settings: tags: C-terminal HIEGRMD linker, human IgG Fc (100-330), 6xHis; R&D Systems; chain copies: 2 (inferred, Fc chimera)
# Protocol: as §4
# (§6) Next, a 20-mer polyadenine (poly A) was added to the 3′ end of each of the RNA aptamers. Thus, poly-A-added RNA aptamers were prepared. […] The plate was then washed, after which a 1-Step Ultra TMB substrate (Thermo Fisher Scientific Inc., USA) was added to the plate to cause color development, and the absorbance at 450 nm was measured.
# [7] = target: T1, rec-cMet (Recombinant Human HGF …); assay: ELONA; high binding; 3' polyA20/biotin-polyT; also SPR FIG. 11; settings: tags: C-terminal HIEGRMD linker, human IgG Fc (100-330), 6xHis; R&D Systems; chain copies: 2 (inferred, Fc chimera)
# Protocol: as §4, §6
# [8] = target: T1, rec-cMet (Recombinant Human HGF …); assay: ELONA; signal higher than g1; settings: tags: C-terminal HIEGRMD linker, human IgG Fc (100-330), 6xHis; R&D Systems; chain copies: 2 (inferred, Fc chimera)
# Protocol: as §4, §5
# The binding ability of each of the RNA aptamers to the rec-cMet was examined in the same manner as in Example 1, except that the truncated RNA aptamers were used. Also, the binding ability of the RNA aptamer g1 was examined in the same manner.
# [9] = target: T1, rec-cMet (Recombinant Human HGF …); assay: ELONA; high binding; 3' polyA20 hybridised to biotin-polyT; 20 mM Tris, 100 mM NaCl, 0.1 mM Mg acetate, 4 C; also SPR FIG. 11; settings: tags: C-terminal HIEGRMD linker, human IgG Fc (100-330), 6xHis; R&D Systems; chain copies: 2 (inferred, Fc chimera)
# Protocol: as §4, §6
# [10] = target: T1, rec-cMet (Recombinant Human HGF …); assay: ELONA; highest binding; Table 2 misnumbers as SEQ 46; also SPR FIG. 11; settings: tags: C-terminal HIEGRMD linker, human IgG Fc (100-330), 6xHis; R&D Systems; chain copies: 2 (inferred, Fc chimera)
# Protocol: as §4, §6
# [11] = target: T1, rec-cMet (Recombinant Human HGF …); assay: SPR; best fluorinated binder; rec-cMet 60 nM; settings: tags: C-terminal HIEGRMD linker, human IgG Fc (100-330), 6xHis; R&D Systems; chain copies: 2 (inferred, Fc chimera)
# From the text: as §1, §2
# [12] = target: T1, rec-cMet (Recombinant Human HGF …); assay: ELONA; Table 2 misnumbers as SEQ 48; also SPR FIG. 11; settings: tags: C-terminal HIEGRMD linker, human IgG Fc (100-330), 6xHis; R&D Systems; chain copies: 2 (inferred, Fc chimera)
# Protocol: as §4, §6
binder,measurement,setting,value
B1,binding result,[1],binds
GGGUGAGAGUUUGACCAGCUAUUAAAUGGGUCGUGACUCA (ssRNA) [g1-miniC],binding result,[2],binds
B2,binding result,[3],binds
same,binding result,[4],no binding
GGGCACUGAGAGUUUGACCAGCUAUUAAAUGGGUCGUGACUCAGUG (ssRNA) [g1-trA],Kd,[5],8.18 nM
GGGACUGAGAGUUUGACCAGCUAUUAAAUGGGUCGUGACUCAGU (ssRNA) [g1-miniA],Kd,[2],7.98 nM
B3,binding result,[6],binds
same,binding result,[4],no binding
B4,binding result,[4],no binding
same,binding result,[7],binds
B5,binding result,[8],binds
B6,binding result,[4],no binding
same,binding result,[9],binds
B7,binding result,[10],binds
same,binding result,[4],no binding
B8,binding result,[8],binds
B9,binding result,[8],binds
B10,binding result,[1],binds
GGGCUGAGAGUUUGACCAGCUAUUAAAUGGGUCGUGACUCAG (ssRNA) [g1-miniB],Kd,[2],26.4 nM
B11,binding result,[11],binds
B12,binding result,[3],binds
same,binding result,[4],no binding
B13,binding result,[3],binds
same,binding result,[4],no binding
B14,binding result,[8],binds
B15,binding result,[8],binds
B16,binding result,[4],no binding
same,binding result,[12],binds
